# Measurements taken from patent publication US11254745.
# Columns and labels:
# [1] = target: extracellular domain of hCD4 fused with human Fc tag (hCD4-hFc) (human) (UniProt P01730); assay: ELISA on human CD4, OD450; fitted EC50 of the control in the table under the graph (unit from the graph's axis)
# [2] = target: extracellular domain of hCD4 fused with human Fc tag (hCD4-hFc) (human) (UniProt P01730); assay: ELISA on plate-coated CD4-hFc, OD450; fitted EC50 of the negative control in the table under the graph (unit from the graph's axis)
EC50 [1],EC50 [2],Substance
0.78 µg/mL,,hIgG1 (antibody)
,0.542 µg/mL,mIgG1 (antibody)
4.48 µg/mL,,Isotype IgG1 (antibody)
